The DeepSol protein solubility set

Test: soluble on expression in E. coli; label from the status in PepcDB or PDB records

Soluble on expression in E. coli, not soluble:
MGSDKIHHHHHHMSRLIEQIKQKDACAFTHGGKFHADDVFSSALLLYINPEISITRGNSVPDDFTGIVFDIGRGEFDHHQKDSRIRENGVPYAAFGLLWEAVGADILGKELAVKFDESFVQPLDNNDNTGEKNELATLIGNFNPSWDYEGGSDEAFFQAVSVAGMILENKFERYRGNERADKRVEEVLAKHDPASRILVLPEFIPCQKALSETDIAFVIFPSNRGGFCIQPQKREYSMNYKCSFPAEWLGLEGEELVNATGIPGAIFCHKGGFIMTVKEQDEAVKACEKALSLHKDSSVIVWYGSKGDTAAMACDSQTDELLINVAKARGIKGVHICHVDAMPVPQLELTELDSETAYAEVLMEKPQWKAYVKEQVKQIVKYRPEAVYVEGNAFETYPVIRALRKKHIPVLTMIENKEKKIMVRIP
MGSDKIHHHHHHMSRSIVEVYASWMPIDTPLLVGHLTFAETSRGGVFSFTYDKHFLASNYRLQIDPLLALHSGELYNDSADKNFRAFLDSSPDRWGRILMQRRAAIECRKGIRASAKLTELDYLLGVHDSYRMGGIRFKTAASLDFLDNNTEFSAPPMTSLRELEQAAMNIERDDNIDSDDYYRWLKMLISPGSSLGGARPKACVTDSEGHLWIAKFPNQNDTFDVGAWEMVCYQLALAAGIDMFPSEIRKFSTEHHTFLTKRFDRVGGKRIHFSSAMTQLQYYDGEQSDGASYLEIAEFLSNNGAQTKADLAQLWRRIVFNIAVSNTDDHLRNHGFLLSDKGWKLSPAYDLNPIVGKHGLHLNITDTANELDYALAFEVIDFFRLSREDATRIYDDVMGAVKGWQTVASRLGISRNEQLTKQEAFNV
MGSDKIHHHHHHMSRTLHAQTHAWLKVFAISARHLSFTRAAEELHVTTGAVSQQIKQLETRLGFKLFRRLPRRLELTDEGQRLAAVVDQAYDAVGQEVRRLRTGVMSGVLRLRCVPSFLAKWLMPRLTRLQARFPDIELHVASEDSNLSLREGEFELAIDLNDGRYAGFQITTLMDEEIFAVCSPQLLRRRPPLVRPDDLGYYPLLHDVTAWRGSHDYAEWEHYLHALGAASVNVQRGYTFNRNHLTVEAAIAGMGVAIARRTLITNELDTGALIAPFAGTVATGKSYGLVYHPGALDDRRVRAVHDWIVEEAARSTAH
MGSDKIHHHHHHMSSAPIIYALSNNSLLIDAAHLDANNVLTIQKKIWALAAHCKNTAEFTDLVAGMNSLTLYLKSSAGLTKWLEALPLLWDELKSSTFTGKHHLIETLYEGEDLAYVARFHNLSIDEVISIHSKAQYHVLFLGFQPGFAYLHGLDTRLHTPRRAEPRIKVPKGAVAIGAAQTGIYPSDTPGGWHIIGHTNTTLFNSSHSQPCLMQPGDTLEFVALKNQGAGA
MGSDKIHHHHHHMSSEAIFEHGYENIDLVREYDARYAGEDVHYETFARLANFFGRDMRPHWHDRYFQLHYLVTGRITLQLDEHFYSVRAPLFVLTPPSVPHTFFTNPDSDGHVLTVRQELIWPLVEKLWPGSGDAAMLQGICLSLEGMEHTLAALNHYWPIISLEFQQNKQGREILLQSLAQSIFTILLREAPPNDISTCSVRGEMCLFQKFNRLIDENYRQHLMVPEYATMLGMSESRLTELCRRFANQSPKRLIFERVSREARRLLLYSEQSINQIALDLGYKDPAYFARFFNRMMGCSPTQFRGR
MGSDKIHHHHHHMSSLEDILALTSALIRYRSTDTRPEERDRCAAHIMRWCDAEDIASSRVDNNGVTSLIIGPASKRAPLLFMAHYDVVEGPDALFQPVLSDSVLKGRGSIDDKYAVALSLVLFRDHLRHLRAQGRSQDDMPLQLLITGDEETGGYDGARHALGHVGAEFCIALDGGSPSTVITKEKGIIDCTLTAHGRAAHGARPWLGTNAVECLMADYMALKRLFPGQDDPTDPIHWHRSLNLGIVRAGSAVNQVPDLATAWLDVRYTEHDDPQALFAAMQESIRGELVATRTEPVFHSGETPWIDRLLACAPGASTGFAHGASDARFLSEHGIPGVVWGAEGETSQHGPDEHLLVDSLDTVHKALAAFVRTAGGTA
MGSDKIHHHHHHMSSVHHKIIKHKIGLLNLAAELGNVSRACKVMGFSRDTFYRYQAAVETGGVEALIDANRRKPNIKNRVEEATEAAILAFALEQPAFGQVRVSNELRKRGIFVSPSGVRSVWLRQNLESFKKRLSALEKHIAETGAVLTEAQVQALEKKQEDDVAQGEIETAHPGYLGSQDTFYVGTLKGVGRIYQQTFVDTYSKWAAAKLYTNKTPITSADMLNDRVLPFFAEQSMGIIRILTDRGTEYCGKPENHDYQLYLALNDIEHSKTKANHPQTNGICERFHKTILQEFYQVTFRRKIYQSIEELQHDLDDWMAYYNSVRTHQGKMCCGRTPMQTLIDAKEIWDDKITELNN
MGSDKIHHHHHHMSTDNDTETDDSGGHCSTPDSDGEVAEDIAIVAFERKRDTAAEIVAGIGDRYDSIDILDYHGDVFAEHWGEYDCFVGLMASGIAMRKTAGLLDDKWEDPAVVVVDEALTWAIPLTGGHHGANQVADDLASMGAVPAMTTASEAAGKQGVEERAKALDTHVVNGDSTVATNLAVLDENLGPVARLDGPQAVVVGDDVTVLKRNSDDGVVLGTGSVSGADEQQFRDAWAASLAATDYDIDDVEFVATGTRKADEEGLLAAAEALGLGVVAFEKETLEAHEGPTPSRSKELIGWPGIAEASAIAGGRDNELLAEKERYDEAVTVAVGK
MGSDKIHHHHHHMSTQYWEEEIEIMSREKLQELQLQRLKKTINIAANSPYYKEVFSKNGITGDSIQSLDDIRKIPFTTKSDMRANYPFGLVAGDMKRDGVRIHSSSGTTGNPTVIVHSQHDLDSWANLVARCLYMVGIRKTDVFQNSSGYGMFTGGLGFQYGAERLGCLTVPAAAGNSKRQIKFISDFKTTALHAIPSYAIRLAEVFQEEGIDPRETTLKTLVIGAEPHTDEQRRKIERMLNVKAYNSFGMTEMNGPGVAFECQEQNGMHFWEDCYLVEIIDPETGEPVPEGEIGELVLTTLDREMMPLIRYRTRDLTRILPGKCPCGRTHLRIDRIKGRSDDMFIIKGVNIFPMQVEKILVQFPELGSNYLITLETVNNQDEMIVEVELSDLSTDNYIELEKIRRDIIRQLKDEILVTPKVKLVKKGSLPQSEGKAVRVKDLRDNK
MGSDKIHHHHHHMSVFATFASQTRIQAILVMQTALSVSSRLSLEPTGTDMPVIKGPDGLPFIPGSSIKGVVRFQVERILRTWDRRPDFWACDPFDAPCIPAKKKEQLLNDAETDQSFAETVWKESCTACRLFGSPWFAGRVAFRDAYLLNPEDLPTLTQIRDGVGIDRDLGTARSGIKYDFETVIPGARFGLEILAENLEEWEIGFLLTVLRLWEEGGIAIGGKTTRGPGWGKLQEIKIQRVGISNLMDYLLERKSSEVAATQFLQTFREWLKERGAGDA
MGSDKIHHHHHHMSVRQPLPERLRPTVLEGFVGQTHLTQRIEALLRANRLPSLLLFGPPGCGKSTLALLLAKARSANVLRLSAPEAGLQHLRKQLHGVDILVLDELHRFSKAQQDFFLPLLESGDITMLATTTENPSFSVTRQLLSRLHVLRLRPLGRAELLELGRRGAVAQEVQIEDDVLDLLASMSHGDARTMLNLLEYVAALPEDKRDIEGVRSAMPEIVSRHDKDGDNHYELASALIKSIRGSDPDAALYYLACLLEGGEDPRFVCRRLILSASEDVGLADPQALPLAVACMQAVEYVGMPEGFIPMAQTTVHLALARKSNSTYAAYINAARELKTQGRKGVPLHLRNPSTRLQKEWGYGKGYRYPHSYPEGWIEQEYLPEGLEDRRFYAPRENGEEPRLSAWWRKLQRQRPPRRGSGE
MGSDKIHHHHHHMSVSISEKTKQAYQHAVEQASVSLLRQPQNSMADELRLLAEQLQPNEKRDVYGGGSLINDFEDEVAELLGKPAALFLPTGTLAQPLALRVHADERQRNGVALHPTSHLMLHEHMGFEALWKLNGTTTGFADNPITLNDLKSVQTDDLASVLLELPMREIGGQLPNWDDLVMQSEWARQHNIAMHLDGARLWQVPAAYGCSLPEVCELFDSVYVSFYKDLGGISGAILAGSEGFIEQAKIWARRAGGNIITQYPQVLSARHGLKENLPIMPEAVNYARALGEALSALNGVRVNPETPQVAMFHLHFALKANELSEKITDYASNTGVVLLPLPRAEMNNEAICEVSIGRNAMSQPQSFWLRHFKAFLDTL
MGSDKIHHHHHHMSVVIEFDKVSRQFVRRQNASTIQERFMGLIRGLPPAEAFWAVRDVSFAVEEGQSIGLVGHNGAGKSTILKLMTRVLEPTSGRVTTQGRIAALLELGSGFHPELSGRENVFLYGSLMGFGRKEMQRKLPEIIEFSEIGPFLDTEVKHYSSGMYTRLAFAVATAVDPDILITDEVLAVGDETFQRKCIDRIYGFRRAGKTIVFVSHALDVVRSLCDVAVWLDHGEMKAYGEAGKVVDAYLADVNERERAEFEERLHSEDDDQIRESRMRRGSREVEITRVQLLDAQGRERITFRTHEPLTIRIHYLAHQRIERPVFGVGINHESGPWLTGPNTGFDKYHIPFIEGAGIIDYHIPRLPFLGGRYLVSASATDSTQLYEFDVHDRMYPLVIHSDGLSQRYGMVFCEGNWSWHG
MGSDKIHHHHHHMSYLKISDTIVETFRFIHYEQSNFLNRLHGGDMLFFLVETGMISASKVAMGTTLLASLDDVVFKKPVRLGDIVKVRAKTVYIGNTSLEVEVRAFVRDEEVVSAYATYVKVDDLLRPTPVNVKIMAESEDDKRKIDEAKKRRENRLSKIVNRQKMRFYVDDITDGLRYRISNVIHVSPELTYDGRIMSAGKLLKLMDDLGGIICLRYLDHNSSNLYDNSFNAVVTVAVKGLAFYSPIRLNDIILIRAGLVYVGNTSADILINVVREDLNGAKEHVATAYFTYVRVDKDGKPIKIPEYTPVTEREKRLYEEALTRRGLRK
MGSDKIHHHHHHMTALDFLPNPPIKQELITPLFHLPYPNPSPIDPKVYKEQSNQAKALAQVFKKEEAHDFDYSSGSFLELFLALALEKKKLAIASSLHYNALKAAREVQKLGIEIFWLHPDVKSGVIEPNSLQEARTRGFELFFLPWANEDLLTLNPLESYGFSLDERLFVEASYPLALGIALPLLEKAHWLINGEILGIPRGYGAILGGEIPLHRPLMRANLFGVLHAALKAREILIENDDQKTLFYEHLSALLGENLSLFAPLKSCLPNALPLRFKGIRARSLIQALLLEKITSLNGQECLFGFSKPSSVLQSMGYDEDEARELLSVSFLPFGSIEELERIAKILALRYKQIHLYS
MGSDKIHHHHHHMTDRSAVPVDSPAGSTRTVILEKALELFAETGFNGVSMRRIAQEVGINPATLYHHFVHKEDLYEQVLRFAYAEQAAHFSALVSIEGTPQSQLGEFIREFAFYIAKDQHFFRLVKREQLEGNSERLKMLVDLLFGKQYEAMVRSVGRVTQAFDTHMLVTSLLGLVLHHYETRHMRQFFVEYMPSQDDPEVVADHCCRLFFFGIQGAGAAQEVPYRSEQSLLSADGEHSRDGAG
MGSDKIHHHHHHMTEIKYKVITKDAFALPYTIIKAKNQPTKGVIVYIHGGGLMFGKANDLSPQYIDILTEHYDLIQLSYRLLPEVSLDCIIEDVYASFDAIQSQYSNCPIFTFGRSSGAYLSLLIARDRDIDGVIDFYGYSRINTEPFKTTNSYYAKIAQSINETMIAQLTSPTPVVQDQIAQRFLIYVYARGTGKWINMINIADYTDSKYNIAPDELKTLPPVFIAHCNGDYDVPVEESEHIMNHVPHSTFERVNKNEHDFDRRPNDEAITIYRKVVDFLNAITMV
